We go through 4 molecules from PMC11784390, “Conformational changes in and translocation of small proteins: insights into the ejection mechanism of podophages” (Journal of Virology, 2024).

T1: core protein gp15 (bacteriophage T7, UniProt P03725 1-747)
T1 construct: core protein gp15 of bacteriophage T7, as it stands in the mature virion; Eight-fold ring in the core of mature T7; source: T7 virions propagated in E. coli, purified (PEG precipitation, CsCl ultracentrifugation)
T1 sequence (looked up): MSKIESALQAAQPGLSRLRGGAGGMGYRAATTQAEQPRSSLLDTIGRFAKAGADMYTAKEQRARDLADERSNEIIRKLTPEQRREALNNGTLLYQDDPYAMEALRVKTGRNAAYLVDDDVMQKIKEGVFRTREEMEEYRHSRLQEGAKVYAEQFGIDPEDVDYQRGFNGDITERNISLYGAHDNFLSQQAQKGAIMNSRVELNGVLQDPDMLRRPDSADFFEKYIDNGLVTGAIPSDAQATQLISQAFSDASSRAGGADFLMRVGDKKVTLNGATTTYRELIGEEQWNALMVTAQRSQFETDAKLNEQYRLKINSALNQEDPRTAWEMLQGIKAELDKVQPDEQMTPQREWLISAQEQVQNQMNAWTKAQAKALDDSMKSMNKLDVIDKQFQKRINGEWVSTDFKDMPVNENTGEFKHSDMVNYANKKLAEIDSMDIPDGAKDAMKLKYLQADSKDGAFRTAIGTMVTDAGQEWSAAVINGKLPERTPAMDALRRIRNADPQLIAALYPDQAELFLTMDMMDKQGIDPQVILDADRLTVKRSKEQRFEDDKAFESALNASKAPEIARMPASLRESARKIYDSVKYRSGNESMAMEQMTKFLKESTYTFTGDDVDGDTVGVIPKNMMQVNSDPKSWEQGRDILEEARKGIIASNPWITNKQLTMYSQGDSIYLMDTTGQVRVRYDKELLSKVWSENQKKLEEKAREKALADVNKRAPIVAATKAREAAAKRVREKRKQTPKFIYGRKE

B1: core protein gp14 (natural protein, bacteriophage T7, UniProt P03724 1-196, looked up)
chain: MCWAAAIPIAISGAQAISGQNAQAKMIAAQTAAGRRQAMEIMRQTNIQNADLSLQARSKLEEASAELTSQNMQKVQAIGSIRAAIGESMLEGSSMDRIKRVTEGQFIREANMVTENYRRDYQAIFAQQLGGTQSAASQIDEIYKSEQKQKSKLQMVLDPLAIMGSSAASAYASGAFDSKSTTKAPIVAAKGTKTGR
notes: core protein gp14 of bacteriophage T7, 196 residues as printed; modelled residues 4-86 and 101-129 in mature T7, 25-143 in DNA-ejected T7; Eight copies resolved in the mature virion, six copies in the extended channel of DNA-ejected T7; source: T7 virions propagated in E. coli, purified (PEG precipitation, CsCl ultracentrifugation)
B2: portal protein gp8 (natural protein, bacteriophage T7, UniProt P03728 1-536, looked up)
chain: MAEKRTGLAEDGAKSVYERLKNDRAPYETRAQNCAQYTIPSLFPKDSDNASTDYQTPWQAVGARGLNNLASKLMLALFPMQTWMRLTISEYEAKQLLSDPDGLAKVDEGLSMVERIIMNYIESNSYRVTLFEALKQLVVAGNVLLYLPEPEGSNYNPMKLYRLSSYVVQRDAFGNVLQMVTRDQIAFGALPEDIRKAVEGQGGEKKADETIDVYTHIYLDEDSGEYLRYEEVEGMEVQGSDGTYPKEACPYIPIRMVRLDGESYGRSYIEEYLGDLRSLENLQEAIVKMSMISSKVIGLVNPAGITQPRRLTKAQTGDFVTGRPEDISFLQLEKQADFTVAKAVSDAIEARLSFAFMLNSAVQRTGERVTAEEIRYVASELEDTLGGVYSILSQELQLPLVRVLLKQLQATQQIPELPKEAVEPTISTGLEAIGRGQDLDKLERCVTAWAALAPMRDDPDINLAMIKLRIANAIGIDTSGILLTEEQKQQKMAQQSMQMGMDNGAAALAQGMAAQATASPEAMAAAADSVGLQPGI
notes: portal protein gp8 of bacteriophage T7, as it stands in the virion; Native virion protein; also called dodecameric portal; source: T7 virions propagated in E. coli, purified (PEG precipitation, CsCl ultracentrifugation); copies: 12
B3: nozzle protein gp12 (natural protein, bacteriophage T7, UniProt P03747 1-794, looked up)
chain: MALISQSIKNLKGGISQQPDILRYPDQGSRQVNGWSSETEGLQKRPPLVFLNTLGDNGALGQAPYIHLINRDEHEQYYAVFTGSGIRVFDLSGNEKQVRYPNGSNYIKTANPRNDLRMVTVADYTFIVNRNVVAQKNTKSVNLPNYNPNQDGLINVRGGQYGRELIVHINGKDVAKYKIPDGSQPEHVNNTDAQWLAEELAKQMRTNLSDWTVNVGQGFIHVTAPSGQQIDSFTTKDGYADQLINPVTHYAQSFSKLPPNAPNGYMVKIVGDASKSADQYYVRYDAERKVWTETLGWNTEDQVLWETMPHALVRAADGNFDFKWLEWSPKSCGDVDTNPWPSFVGSSINDVFFFRNRLGFLSGENIILSRTAKYFNFYPASIANLSDDDPIDVAVSTNRIAILKYAVPFSEELLIWSDEAQFVLTASGTLTSKSVELNLTTQFDVQDRARPFGIGRNVYFASPRSSFTSIHRYYAVQDVSSVKNAEDITSHVPNYIPNGVFSICGSGTENFCSVLSHGDPSKIFMYKFLYLNEELRQQSWSHWDFGENVQVLACQSISSDMYVILRNEFNTFLARISFTKNAIDLQGEPYRAFMDMKIRYTIPSGTYNDDTFTTSIHIPTIYGANFGRGKITVLEPDGKITVFEQPTAGWNSDPWLRLSGNLEGRMVYIGFNINFVYEFSKFLIKQTADDGSTSTEDIGRLQLRRAWVNYENSGTFDIYVENQSSNWKYTMAGARLGSNTLRAGRLNLGTGQYRFPVVGNAKFNTVYILSDETTPLNIIGCGWEGNYLRRSSGI
notes: nozzle protein gp12 of bacteriophage T7, as it stands in the virion; Native virion protein; also called tail nozzle; source: T7 virions propagated in E. coli, purified (PEG precipitation, CsCl ultracentrifugation)
B4: fiber protein gp17 (natural protein, bacteriophage T7, UniProt P03748 1-553, looked up)
chain: MANVIKTVLTYQLDGSNRDFNIPFEYLARKFVVVTLIGVDRKVLTINTDYRFATRTTISLTKAWGPADGYTTIELRRVTSTTDRLVDFTDGSILRAYDLNVAQIQTMHVAEEARDLTTDTIGVNNDGHLDARGRRIVNLANAVDDRDAVPFGQLKTMNQNSWQARNEALQFRNEAETFRNQAEGFKNESSTNATNTKQWRDETKGFRDEAKRFKNTAGQYATSAGNSASAAHQSEVNAENSATASANSAHLAEQQADRAEREADKLENYNGLAGAIDKVDGTNVYWKGNIHANGRLYMTTNGFDCGQYQQFFGGVTNRYSVMEWGDENGWLMYVQRREWTTAIGGNIQLVVNGQIITQGGAMTGQLKLQNGHVLQLESASDKAHYILSKDGNRNNWYIGRGSDNNNDCTFHSYVHGTTLTLKQDYAVVNKHFHVGQAVVATDGNIQGTKWGGKWLDAYLRDSFVAKSKAWTQVWSGSAGGGVSVTVSQDLRFRNIWIKCANNSWNFFRTGPDGIYFIASDGGWLRFQIHSNGLGFKNIADSRSVPNAIMVENE
notes: tail fiber protein gp17 of bacteriophage T7, as it stands in the virion; Six trimeric fibers on the virion; also called tail fiber; source: T7 virions propagated in E. coli, purified (PEG precipitation, CsCl ultracentrifugation)

The series “nozzle protein gp12” deals with B3. Put plainly: cryo-EM structure; DNA-ejected T7: purified mature T7 incubated with rough LPS (250 µg/mL) at 37°C for 3 h; entire particle asymmetric 8.2 Å; portal–tail complex 3.5 Å (six-fold). The following applies: both partners purified.
Series [1] concerns the molecule itself. Described as above.
The series “portal protein gp8” concerns the target B2. Put plainly: cryo-EM structure; mature T7 virions, in situ; entire particle asymmetric 6.1 Å; local reconstructions of core complex 3 Å (four-fold), portal 2.5 Å (twelve-fold), portal–tail complex 2.7 Å (six-fold). The following applies: both partners purified.
A further series deals with T1, core protein gp15. The description is as above. The following applies: both partners purified.
Series [2] deals with the molecule itself. Described as above.

Take B1: the binding result with nozzle protein gp12, with portal protein gp8 and with core protein gp15 was “binds” in each case. In addition, the “stoichiometry N” value in series [1] was found to be 6.

For the molecule B2, the “stoichiometry N” value in series [2] was 12.

For the molecule B3, the “stoichiometry N” value in series [1] is 6.

For B4, in series [2], the “stoichiometry N” value worked out at 3.
